Data taken from US20260061072A1.

Target: Human Leukocyte Antigen (HLA) on the surface of human cells (human)
Test: cell-based or functional assay

In the case of “anti-HLA monoclonal antibody clone W6/32 (mouse, ThermoFisher)”, the antibody concentration of highest luciferase transduction of SKBR3 cells was 10 µg/mL.
